Test: yeast display, Sf9 membrane polyspecificity reagent, FACS + sequencing; frameworks hold sequencing errors
Procedure, shortened: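 A nanobody's polyreactivity label depends on the gate it was sorted from. Yeast display cells were stained with 10% biotinylated, detergent-solubilized Sf9 membrane reagent for 1 hour at 4 °C, enriched on streptavidin microbeads and sorted by FACS. The low and high (top ~1%) gates were set on anti-HA fluorescence for expression and streptavidin fluorescence for reagent binding.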

Sequence	polyreactivity (PSR sort gate)
QVQLVESGGGLVQAGGSLRLSCAASGFIFFRYSMGWYRQAPGKERELVATINLGGGSTYADSVKGRFTISRDNAKNTVYLQMTSLKPEDTAVYYSAADVANSIYDYWGQGTLVTVSS	low polyreactivity
QVQLVESGGGLVQAGGSLRLSCAASGSTFGKYAMGWYRQAPGKERELVAAISKSGGSTYYADSVKGRFTISRDNAKNTVYLQMNSLKPEDTAVYYCAADVTYGTKWAYDYWGQGTQVTVSS	high polyreactivity
QVHLVESGGVLVQAGGSLRLSCAASGFTFNRYAMGWYRQAPGKERELVAAITSAGNTYYADSVKARFTNSRDNGKNTVYLQMNSMKPEDTAVYYCLNGRYWRRYDYWGQGTQVTVSS	high polyreactivity
QVQLVESGGGLVQAGGSLRLSCAASGRIFNYYDMGWYRQAPGKERELVAAISSGGTTYYADSVKGRFTISRDNAKNTVYLQMNCLKREDTAVYFCASYYTPQRLRSGKFDYWGQGTQVTVST	high polyreactivity
QVQLVESGGGLVQAGGSLRLSCAASGFTFTRYAMGWYRQAPGKERELVAAISRIGGSTYYADSVKGRFTISRDNAKNTVYLQMNSLKPEDTAVYYCAAYKVPSYDYWGQGTQVTVSS	high polyreactivity
QVHLVESGGGLVQAGASLRLSCAASGFTFGVNAMGWSRQAPGKERELVAVITSGGNTYYADSVKGRFTISRDNAKNTVYLHMNSLNPEDTAVYYCAAYGRASWERDYWGKGTQVTVSS	low polyreactivity
QVQLVESGGGLVQAGGSLRLSCAASGLTFYLYAMGWYRPAPGKERELVAGISYRGASTYYADSVKGRFTISRDNAKNTVYLQMNSLKPEDTAVYYCAADDTTPNGVYWGQGTQVTVSS	low polyreactivity
QVQLVESGGGLVQAGGSLRLSCAASGRIFYYYVMGWYRQAPGKERELVAVIDWSGGSTYYADSVKGRFTISRDNAKNTVYLQMNSLKPEDTAVYYCAKVWLNFSLAYEDYDYWGQGTQVTVSS	low polyreactivity
QVQLVESGGGLVQAGGSLRLTCAASGSTFVWYAMGWSRQAPGKEREFVATISWSDGSTYYADSVKGRFTISRDNAKNTVYLQMNSLKPEDTAVYYCASDVDRFFTYKYDYWGQGTQVTVSS	low polyreactivity
QVQLVESGGGLVQAGGSLRLSCAASGSTFGYYARGWYRQAPGKERELVAAISWSGTRTYYADSVKGRFTISRDNATNTVYLQMNSLKPEDTAVYYCAVRISRPRVYYYWGQGTQVTVSS	high polyreactivity
QVQLVESGGGLVQAGGSLRLSCAASGSTFNKYAMGWYRPAPGKERELVAVITKRGGSTYYADSVKGRFTISRDNAKNTVYLQMNSLKPEDTAVYYCAASSLYYGYDYWGQGTQVTVSS	high polyreactivity
QVQLVESGGGLVQAGGSLRLSCAASGRTFDGYAMGWYRQAPGKERELVAAIDGGGSTNYADSVKGRFTISRDNAKNTVYLQMNSLKPEDTAVYYCAADRGSGPGYDYWGQGTQVTVSS	low polyreactivity
QVQLVESGGGLVQAGGSLRLSCAASGSTYRYTMGWYRPAPGKERELVAAITGSAGSTYYADSVKGRFTISRDNAKNTVYLQMHSLKPEDTAVYYCNKVRPRKFWDYYYWGQGTQVTVSS	high polyreactivity
QVQLVESGGGLVQAGVSLRLSCAASGSIFQTYDMGWYRQAPGKERELVAAITGSGDSTYYADSVKGRFTISRDNAKNTVYLQMNSLKPEDTAVYYCNADGPSTPWVEYGYWGQGTQVTVSS	low polyreactivity
QVQLVESVGGLVQAGVSLRLSSPATGSTIYFYAMGWYRQEPGKERELVAAISGSGGRKYYADSVKGRFTISRDNAKNTVYLQMNSLKPEDTAVYYCAAEWFPYSEREFLYYYWGQGTQVTVSS	high polyreactivity
QVQLVESGGGLVQAGGTLRLSCAASGFTLSVYAMGWYIQAPGKDRELVAAITRSTGSTYYADSVKGRFTISRDNAKNTVYLQMNSLKPEDTAVYYCNAGHFAHHHGYYRSKYDYWGQGTQVTVSS	low polyreactivity
QVQLVESGGGLVQAGGSLRLSCAASGSIFRAYAMGWYRQAPGKERELVATISGSGGSTDYADSVKGRFTISRDTAKNTVYLQMNSLKPEDTAVYYCARDDPASHKRYWHDYWGQGTQVTVSS	low polyreactivity
QVQLVESGGGLVQAGGSLRLSCAASGSIFSKYVMGWYRQAPGKERELVAAISWSGTRTYYADSVKGRFTISRDNAKNTVYLQMNSLKPEDTAVDYCAARRLYAGHQYDYWGQGTQVTVSS	high polyreactivity
QVQLVESGGGLVQAGGSLRLSCAASGVYAMGWYRQAPGKERELVAAISRRGGSTYYADSVKGRFTISRDNAKNTVYLQMNSLKPEDTAVYYCAAKRAGAEYDYWGQGTQVTVSS	high polyreactivity
QVQLVESGGGLVQAGGSLRLSCAAYGSTITYYPMGWYRQAPGKERELVAAISGSGRTHYADSVKGRFTISRDNAKNTVYLQMISLNPEDTAVYYCNARQYTYNYAFTRCKYDYWGQGTQVTVSS	high polyreactivity
QVQLVESGGGLVQAGGSLSLSCAASGFIFNHYAMRWYRQAPGTETEFVAAISLSGGSTYYAVSVKGRFTISRDNAKKTVYLQRNSLKPEDTAVYYCAASYNGLWHGDYDYWGHGTQVTVSS	low polyreactivity
QVQLVESGGGLVQAGGSLRLSCAASGITFSNSAMGWYRQAPGKERELVASITRRGTRTYYADSVKGRFTISRDNAKNTVYLQMNSLKPEDTAVYYCNRSFYSWIDLIYGGYDYWGQGTQVTVSS	high polyreactivity

Sequence	polyreactivity (PSR sort gate)
QDQLVESAGGLVQAGGSRRLSCAASGFTFYRNAMGCYRQAPGKERELVAAISITGGRTYYADSVKGRFTISRDNAKNTVYLQMNSLIPEDTAVYYCAKDRQRYGGDFDYWGQGTQLTVSS	high polyreactivity
QFQLEESGRGLVQAGGSLRLSCAASGSTLSYNAMGCYRQAPGKERELVAAISGRGGSTSYADSVKGRFTITRDNAKKTVYLQMNRLKPVDTAVYYCIAGKYSSSAALYDYWGQGTQVTVSS	high polyreactivity
QVQLVESGGGLVQAGGSLRLSCAASGFTFPYYAMGWSRQAPGKERELVAAISFSGGSPYYADSVKGRFTISRDNAKNTVYLQMNSLKPEDTAVYYCAATTKYNGRRSYFKFDYWGQGTQVTVST	high polyreactivity
QVQLVESGGGLVQAGGSLRLSCAASGYIFIVNAMGWYRQAPGKERELVAAINSSGGNTYYADSVKGRFTISRDNAKNTVYLLMNSLKPEDTAVYYCAADQAKDISVEYDYWGQGTQVTVSS	low polyreactivity
QVQLVESGGGLVQAGGSLRLSSAASGITFRYYTMGWYRQAPGKERELVAAITWSGGSTYYADSVKGRFTISRDNAKNTVYLQMNSLKPEDTAVYYGAADSYRFRYSGYDYWGQGTQVTVSS	high polyreactivity
QVHLLESGGGLLQAGGSLRLNSDASGSTFITYCIGWFRQAPGKERELVARITLSGGSTYYADSVKGRFTSSRDNAKNTVYLQMNRLKPEDTAVYYCATDFGWQYYVLDGYYWGQGTQVTVSS	low polyreactivity
QVQLVESGGGLVQAGGSLRLSCAASGSTFGDNAMGWYRQAPGKERELVATITSGGNTNYADSVKGRFTISRDNAKNTVYLQMNSLKPEDTAGYYCNTDFRPAGTTGTTTARYEYWGQGTQVTLSS	low polyreactivity
QVQLVESGGGLVQAGGSLRLSCAASGFTFYTYTMGWYRQAPGKERELVAVISRSGGSTYYADSVKGRFTISRDNAKNTVYLQMNSLKPEDTAVYYCNKVGIYGSRSRYDSWGQGTQVTVSS	high polyreactivity
QVQLVESGGGLVQAGGSLRLTCAASGRISKIYAMGWYRQAPGKERELVAAINSGGSTNYADSVKGRFTISRDNAKNTVYLQMNSLKPEDTAVYYCAATFKSGMDFWGQGTQVTVSS	high polyreactivity
QVQLVESGGGLVQAGGSLRLSCAASGRIFDDNTMGWYRQAPGKEREVVAAISVSGGRTYYADSVKGRFTISRDNAKNTVYIQMNSLKPEDTAVYYCNARLGPFWDYRLKNGTHDYWGQGTQVTVAS	high polyreactivity
QVQLVESGGGLVQAGGSLRLSCAASGFIFPSYVMGWYRQAPWKERELVATISHSGGSTYYADSVKGRFTLSRDNAKNTVYLQMNSLKPEDTAVYYCATRRRGPYSPYSPYDYWGQGTQVTVSS	high polyreactivity
QVQLVESGGGLVQAGGSLRLTCAASGRTFGVNAMGWYRPAPGKERQLVAAITGGGSTYYADSVKGRFTISRDNAKNTVYLQMNSLKPDDTAVYYCNADRRRRSGGFAGWHFERNDYWGQGTQVTVSS	low polyreactivity
QVHLVESGGGLVQAGGSLRISCAASGRTFQVYAMGRYRQAPGKERELVAAISLTGGGTYYADSVKGRFTISRDYANNTVYLQMNSLKPEDTAVYYCAVRRRTHLGFLYEYWGQGTQVTVSS	high polyreactivity
QVQLEESGGGLVQAGGSLRLSCAASGSTFDVYAMGWYRQAPGKERELVAAIRSSGGSTFYADSVKGRFTISRDNAKNIVYLQMNSLKPEDTAVYYCAARSFVVSGYNKYYEYGYWGQGTQVTVSS	low polyreactivity
QVQLVESGRGLFQAGRSLRISCAASGSIFSYNTMGWYREAPGKERELVASISSGGRTYYADSVKGRFTISRDNAKNTVYLQMNSLKPVDTAVYDCARVPYAYLPYKPFQQYSYDYWGQGTQVTVSS	high polyreactivity
QVQLVESGGGLVQAGGSLRLSSAASGRTFAYYAMGWYRQAPGKERELVAAISSAGRTYYADSVKGRFTISRDNAKNTVYLQMNSLKTEDTAVYYCAAEWYYYVIWLYEYWGQGTQVTVSS	high polyreactivity
QVHLVESGGGLVQAGGSLRLSCAASGLIFYRYAMGWYRQAPGKERELVATISRGGRTYYADSVKGRFTNSRDNAKNTVYLQMNSLKPEDTAVYYCNADRQWYSIGSWEYDYWGQGTQVTVSS	high polyreactivity
QVQLVESGGGLVQAGGSLRLSCAASGRTFLGYTMGWYRQAPGKERELVAAITSGGSTYYADSVKGRFTISRDNAKNPVYLQMNSLKPEDTAVYYCARGYFEQVQYWYDNEYDFWGQGTQVTGSS	low polyreactivity
QVQLVESGGGLVQAGGSLRLSCAASGFTFVSNALGWYRQAPGKETELVADITSDGSTNYADSVKGRFSISRDNAKNTVYLQMNSLKPEDTAVYYCATDQRSHTWVNQFDYWGLGTQVTVSS	low polyreactivity
QVQLQESGGGLVQAGGSLRLICAASGTIFSARFMGWYRQAPGKERELVATITDGGNTNHADSVKGRFTISRDNAKNTVYLKMYSLKPEDAAVYYCAAGEVDNDTLLFWGQGSQVTVSS	low polyreactivity
QVQLVESGGGLVQAGGSLRLSCAASGSTFLTNVMGWYRQAPGKERELVAAITIGGSTNYADSVKGRFTISRDNAKNTVYLQMNSLKPEDTAVYYCATDIRRKPRYVDYEYWGQGTQVTVSS	low polyreactivity
